The source of these data is US20250289891A1 (AUTOLUS, published 2025).

Where only a bound is given, the exact number is not on record here.

The target of experiment [1] is T1, Recombinant purified FcRH5 Ig-8 domain (UniProt Q96RD9 743-850, limits assumed).
T1 construct: domain: Ig8
T1 sequence (looked up): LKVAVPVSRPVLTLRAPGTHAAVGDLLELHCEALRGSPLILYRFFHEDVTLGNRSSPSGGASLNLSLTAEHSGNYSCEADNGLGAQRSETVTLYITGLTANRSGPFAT
In words: SPR, Biacore 8k, VHH-mIgG2a Fc captured by anti-mouse kit on CM5, FcRH5 Ig8 as analyte (500 nM, 2-fold dilutions), 1:1 Langmuir fit, 25 C. The protocol:
(§1) Recombinant anti-FcRH5 antibodies in mouse IgG2a format were captured on flow cell 2 on a Series S CM5 chip (GE Healthcare), functionalised with anti-mouse capture kit according to manufacturer's recommendations (GE Healthcare). Antibodies were captured to a density of 160 RU using a Biacore 8k instrument. HBS-P+ buffer was used as running buffer in all experimental conditions. Recombinant purified FcRH5 Ig-8 domain at known concentrations (500 nM with 2-fold serial dilutions) used as the ‘analyte’ and injected over the respective flow cells with 150s contact time and 500s dissociation at 30 μl/minute of flow rate with a constant temperature of 25° C. In each experiment, flow cell 1 was unmodified and used for reference subtraction. A ‘0 concentration’ sensogram of buffer alone was used as a double reference subtraction to factor for drift. Data were fit to a 1:1 Langmuir binding model. Since a capture system was used, a local maximal analytical response (Rmax) parameter was used for the data fitting in each case.
(In general: Surface plasmon resonance follows binding to a sensor surface in real time, without labels.)

The target of experiment [2] is T1, Recombinant purified FcRH5 Ig-8 domain. The experiment can be described thus: SPR, Biacore 8k, VHH-mIgG2a Fc captured, FcRH5 Ig8 as analyte, 1:1 Langmuir fit, 25 C; footnote: kd outside instrument limits. The protocol: as §1
Experiment [3] addresses T2, Plate bound FcRH5 antigen (UniProt Q96RD9).
T2 sequence (looked up): T1 sequence (looked up)
The experiment can be described thus: cell-based or functional assay.

B1: Anti-FcRH5 VHH-Fc AU60390 (AbVec.aFcRH5.dAb-MIgG2a-Fc.Clone.C06) (Fc fusion)
chain: QVQLQQSGGGLVQAGDSLRLSCAASGRTFSNSTMGWFRQAPGKERKFVAVISWSGGTYAYAESVKGRFTISRDNAKNTVYLQMNSLKPEDTAVYYCAAARKGWSTRGDDYDYWGQGTQVTVS
notes: not shown: murine IgG2a Fc domain
By kon is commonly meant a measure of how fast the partners come together. The term Kd denotes the concentration at which binding is half-saturated. By koff is commonly meant a measure of how fast the partners let go of each other. For B1, the kon in experiment [1] stood at 50000 M⁻¹ s⁻¹. Also, in experiment [2], the Kd was < 0.2 nM and the koff is < 1e-05 s⁻¹.

B2: Anti-FcRH5 VHH-Fc AU60387 (AbVec.aFcRH5.dAb-MIgG2a-Fc.Clone.C01) (Fc fusion)
chain: QVQLQESGGGLVQAGGSLRLSCAASGRTFSTYGMGWFRQAPGKEREFVAAISRSGGATAYAASVKGRFTISRDDVKNTLYLQMNSLKPEDTAVYHCAGTRRAFSTGLRDYDYWGQGIQVTVS
notes: VHH fused to murine IgG2a Fc; not shown: murine IgG2a Fc domain
On to B2, for which the kon in experiment [1] is 48600 M⁻¹ s⁻¹. In experiment [2], the Kd was < 0.206 nM and the koff is < 1e-05 s⁻¹.

B3: Anti-FcRH5 VHH-CAR 66843 (VHH of AU60382), on Jurkat T cells (protein, not shown: large carriers)
chain: QVQLQESGGGLVQAGGSLIVSCAASGRTFSINAMAWFRQAPGKEREFVAAIGGSGRVSSTSYADFVKGRFTISRDNAKNTVYLRMNNLEPEDTAVYYCAARRDYLPFPPESYDYWGQGTQVTVA
In experiment [3], B3 yielded an EC50 (µg/ml) of percentage Nur77 activation by plate bound FcRH5 antigen (µg/ml FcRH5 coating) of 1.97 and a Nur77-mClover positive cells after 24 h 10 µg/ml (% upregulation) of 29.7%.
